Changes are numbered by the printed parent chain. Numbers in names are those of the source.
T1: EpCAM (UniProt P16422 24-265)
T1 construct: also called biotinylated EpCAM
T1 sequence (looked up): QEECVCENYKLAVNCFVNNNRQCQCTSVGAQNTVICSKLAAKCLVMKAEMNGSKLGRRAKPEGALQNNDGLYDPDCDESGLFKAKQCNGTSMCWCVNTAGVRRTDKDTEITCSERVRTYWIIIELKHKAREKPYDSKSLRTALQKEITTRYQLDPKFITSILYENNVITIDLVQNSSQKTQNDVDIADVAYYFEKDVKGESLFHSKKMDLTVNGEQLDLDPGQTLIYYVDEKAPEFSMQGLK

B1: AC_05293 (bispecific antibody)
heavy: not shown
light: DIQMTQSPSSLSASVGDRVTITCRASQSISSYLNWYQEKPGKAPKLLIYAASSLQSGVPSRFSGSGSGTDFTLTISSLQPEDFATYYCQQYGRNPPTFGQGTKLEIKRTVAAPSVFIFPPSDEQLKSGTASVVCYLNNFYPREAKVQWKVDNALQSGNSQESVTEQDSKDSTYSLWSTLTLSKADYEKHKVYACEVTHQGLSSPVTKSFNRGEC
chain: EVQLLEQSGAELVRPGTSVKISCKASGYAFTNYWLGWVKERPGHGLEWIGDIFPGSGNIHYNEKFKGKATLTADKSSSTAYMQLSSLTFEDSAVYFCARLRNWDEPMDYWGQGTTVTVSSASTKGPSVFPLAPSSKSTSGGTAALGCLVKDYFPEPVTVSWNSGALTSGVHTFPAVLQSSGLYSLSSVVEVPSSSLGTQTYICNVNHKPSNTKVDKKVEPKSC
notes: Chain H1 (role heavy) = IgG heavy chain-linker-Fab light chain; chain L1 (role light) = IgG light chain; chain H2 (role chain) = Fab heavy chain VH-CH1; also called wt bsAb (AC_05293); wild-type bsAb
B2: AM_4120-4126 (bispecific antibody)
heavy 1: not shown
light: B1 light
heavy 2: B1 chain with Y183I
notes: AC_05293 backbone; also called double mutant A111V + Y180I; copies: 2 + 2 + 2
B3: AM_4120-4134 (bispecific antibody)
heavy 1: not shown
light: B1 light
heavy 2: B1 chain with V191G
notes: AC_05293 backbone; also called double mutant A111V + V188G; copies: 2 + 2 + 2
B4: AM_4110-4134 (bispecific antibody)
heavy 1: not shown
light: B1 light
heavy 2: B1 chain with V191G
notes: AC_05293 backbone; also called double mutant I126G + V188G; copies: 2 + 2 + 2
B5: AM_4115-4133 (bispecific antibody)
heavy 1: not shown
light: B1 light
heavy 2: B1 chain with S186T
notes: AC_05293 backbone; also called double mutant I126S + S183T; copies: 2 + 2 + 2
B6: AM_4117-4133 (bispecific antibody)
heavy 1: not shown
light: B1 light
heavy 2: B1 chain with S186T
notes: AC_05293 backbone; also called double mutant T109P + S183T; copies: 2 + 2 + 2
B7: AM_4109-4133 (bispecific antibody)
heavy 1: not shown
light: B1 light
heavy 2: B1 chain with S186T
notes: AC_05293 backbone; also called double mutant I126A + S183T; copies: 2 + 2 + 2
B8: AM_4120-4133 (bispecific antibody)
heavy 1: not shown
light: B1 light
heavy 2: B1 chain with S186T
notes: AC_05293 backbone; also called double mutant A111V + S183T; copies: 2 + 2 + 2
B9: AM_4117-4134 (bispecific antibody)
heavy 1: not shown
light: B1 light
heavy 2: B1 chain with V191G
notes: AC_05293 backbone; also called double mutant T109P + V188G; copies: 2 + 2 + 2
B10: AM_4110-4133 (bispecific antibody)
heavy 1: not shown
light: B1 light
heavy 2: B1 chain with S186T
notes: AC_05293 backbone; also called double mutant I126G + S183T; copies: 2 + 2 + 2
B11: AM_4109-4131 (bispecific antibody)
heavy 1: not shown
light: B1 light
heavy 2: B1 chain with Y183W
notes: AC_05293 backbone; also called double mutant I126A + Y180W; copies: 2 + 2 + 2
B12: AM_4110-4126 (bispecific antibody)
heavy 1: not shown
light: B1 light
heavy 2: B1 chain with Y183I
notes: AC_05293 backbone; also called double mutant I126G + Y180I; copies: 2 + 2 + 2
B13: AM_4117-4131 (bispecific antibody)
heavy 1: not shown
light: B1 light
heavy 2: B1 chain with Y183W
notes: AC_05293 backbone; also called double mutant T109P + Y180W; copies: 2 + 2 + 2
B14: AM_4117-4126 (bispecific antibody)
heavy 1: not shown
light: B1 light
heavy 2: B1 chain with Y183I
notes: AC_05293 backbone; also called double mutant T109P + Y180I; copies: 2 + 2 + 2
B15: AM_4120-4131 (bispecific antibody)
heavy 1: not shown
light: B1 light
heavy 2: B1 chain with Y183W
notes: AC_05293 backbone; also called double mutant A111V + Y180W; copies: 2 + 2 + 2
B16: AM_4115-4134 (bispecific antibody)
heavy 1: not shown
light: B1 light
heavy 2: B1 chain with V191G
notes: AC_05293 backbone; also called double mutant I126S + V188G; copies: 2 + 2 + 2
B17: AM_4109-4126 (bispecific antibody)
heavy 1: not shown
light: B1 light
heavy 2: B1 chain with Y183I
notes: AC_05293 backbone; also called double mutant I126A + Y180I; copies: 2 + 2 + 2
B18: AM_4109-4134 (bispecific antibody)
heavy 1: not shown
light: B1 light
heavy 2: B1 chain with V191G
notes: AC_05293 backbone; also called double mutant I126A + V188G; copies: 2 + 2 + 2
B19: AM_4110-4131 (bispecific antibody)
heavy 1: not shown
light: B1 light
heavy 2: B1 chain with Y183W
notes: AC_05293 backbone; also called double mutant I126G + Y180W; copies: 2 + 2 + 2
B20: 4109 (bispecific antibody)
heavy 1: not shown
heavy 2: B1 chain
light: B1 light
notes: CD40 x EpCAM; also called single mutant I126A of AC_05293; copies: 2 + 2 + 2
B21: 4110 (bispecific antibody)
heavy 1: not shown
heavy 2: B1 chain
light: B1 light
notes: also called single mutant I126G of AC_05293; copies: 2 + 2 + 2

What follows are binders tested against T2, CD40 (UniProt P25942 21-193) (assay: Octet BLI; biotinylated CD40 on streptavidin sensor;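 note: octet RED96 biolayer interferometry, 300 s association then 300 s dissociation in kinetic buffer, buffer-blank referenced, fitted with a 1:1 Langmuir binding model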).
T2 construct: also called biotinylated CD40; CD40 antigen
T2 sequence (P25942 21-193 limits assumed): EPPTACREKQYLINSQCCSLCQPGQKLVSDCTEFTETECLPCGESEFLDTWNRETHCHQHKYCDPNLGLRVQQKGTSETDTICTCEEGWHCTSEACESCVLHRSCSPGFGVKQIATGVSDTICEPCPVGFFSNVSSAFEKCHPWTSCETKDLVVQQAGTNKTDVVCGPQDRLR
Procedure: (§1) Kinetic measurements were performed using the Octet RED96 platform (ForteBIo). […] Association was followed for 300 seconds followed by dissociation in 1x Kinetic buffer for 300 seconds. Sensor tips were regenerated using 10 mM glycine, pH 1.7. Data generated were referenced by subtracting a parallel buffer blank, the baseline was aligned with the γ-axis, inter-step correlation by alignment against dissociation was performed and the data were smoothed by a Savitzky-Golay filter in the data analysis software (v.9.0.0.14). The processed data were fitted using a 1:1 Langmuir binding model with X2 as a measurement of fitting accuracy.
(§2) Binding affinities of all the variants were determined using Octet (Pall ForteBio).

Binder	Kd [nM]	koff [s⁻¹]	kon [M⁻¹ s⁻¹]
B1	0.93	0.001	1.1e+06
B2	0.86	0.001	1.2e+06
B3	0.91	0.0011	1.2e+06
B4	0.88	0.00075	860000
B5	1	0.0011	1.1e+06
B6	0.93	0.0007	750000
B7	0.73	0.001	1.4e+06
B8	0.9	0.0011	1.2e+06
B9	0.97	0.00072	740000
B10	1.1	0.00075	680000
B11	0.89	0.00072	800000
B12	1.5	0.00051	350000
B13	1	0.00066	630000
B14	1.2	0.00048	400000
B15	1.1	0.00097	920000
B16	1.1	0.001	930000
B17	1.2	0.0006	480000
B18	0.83	0.00092	1.1e+06
B19	1.2	0.00056	450000

The binders below were run against T1, EpCAM (assay: Octet BLI; biotinylated EpCAM on streptavidin sensor;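 note: octet RED96 kinetics: 300 s association, then 300 s dissociation in 1x Kinetic buffer, buffer-blank referenced, Savitzky-Golay smoothed, fitted to a 1:1 Langmuir binding model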).
Procedure: as §1, §2

Binder	Kd [nM]	koff [s⁻¹]	kon [M⁻¹ s⁻¹]
B1	4.8	0.0012	230000
B2	5.6	0.0013	230000
B3	5.8	0.0014	250000
B4	5.3	0.0011	200000
B5	7	0.0013	180000
B6	4.6	0.0012	260000
B7	4.6	0.00092	200000
B8	5.7	0.0014	240000
B9	5.2	0.0012	230000
B10	4.9	0.00096	190000
B11	4.4	0.00081	180000
B12	5.1	0.0009	170000
B13	4.5	0.0012	260000
B14	4.6	0.001	220000
B15	5.3	0.0015	280000
B16	6.9	0.0013	190000
B17	4.3	0.00077	180000
B18	4.7	0.00098	210000
B19	4.7	0.00095	200000

These binders were tested against T2, CD40 (assay: dual ELISA: CD40 coated, bsAb titrated, biotinylated EpCAM + streptavidin-HRP; signal needs both targets).
Procedure: (§3) Dual ELISA Plates were coated with 0.5 μg/mL CD40 in PBS over night at 4° C. After washing in PBS/0.05% Tween 20 (PBST), the plates were blocked with PBS/2% BSA for at least 30 minutes at room temperature before being washed again. Samples serially diluted in PBS/0.5% BSA were then added and allowed to bind for at least 1 hour at room temperature. […] Dual complexed bsAb with CD40 and EpCAM were detected with HRP-labelled streptavidin. SuperSignal Pico Luminescent was used as substrate and luminescence signals were measured using Fluostar Optima.

Binder	EC50 (read off the curve) [µg/mL]
B1	~0.1
B20	~0.1
B21	~0.1

Target: T2, CD40
Experiment: as above
Remark: another data set of the same source
Procedure: as §3

Binder	EC50 (read off the curve) [nM]
B1	~0.9
B7	~0.9
B11	~0.9
B17	~0.9
B18	~0.9
